Experimental data as given in the supplement of paper PMC10065799, “High-throughput profiling of sequence recognition by tyrosine kinases and SH2 domains using bacterial peptide display” (eLife, 2023).

Assays:
AncSZ = assay: phosphorylation enrichment, bacterial display (enrichment ratio); higher = better substrate or ligand; peptides without Tyr show the background
EPHB1 = EPHB1 (UniProt P54762); assay: as above
EPHB2 = EPHB2 (UniProt P29323); assay: as above
FGFR1 = FGFR1 (UniProt P11362); assay: as above
FGFR1, sequence (P11362 whole entry, looked up): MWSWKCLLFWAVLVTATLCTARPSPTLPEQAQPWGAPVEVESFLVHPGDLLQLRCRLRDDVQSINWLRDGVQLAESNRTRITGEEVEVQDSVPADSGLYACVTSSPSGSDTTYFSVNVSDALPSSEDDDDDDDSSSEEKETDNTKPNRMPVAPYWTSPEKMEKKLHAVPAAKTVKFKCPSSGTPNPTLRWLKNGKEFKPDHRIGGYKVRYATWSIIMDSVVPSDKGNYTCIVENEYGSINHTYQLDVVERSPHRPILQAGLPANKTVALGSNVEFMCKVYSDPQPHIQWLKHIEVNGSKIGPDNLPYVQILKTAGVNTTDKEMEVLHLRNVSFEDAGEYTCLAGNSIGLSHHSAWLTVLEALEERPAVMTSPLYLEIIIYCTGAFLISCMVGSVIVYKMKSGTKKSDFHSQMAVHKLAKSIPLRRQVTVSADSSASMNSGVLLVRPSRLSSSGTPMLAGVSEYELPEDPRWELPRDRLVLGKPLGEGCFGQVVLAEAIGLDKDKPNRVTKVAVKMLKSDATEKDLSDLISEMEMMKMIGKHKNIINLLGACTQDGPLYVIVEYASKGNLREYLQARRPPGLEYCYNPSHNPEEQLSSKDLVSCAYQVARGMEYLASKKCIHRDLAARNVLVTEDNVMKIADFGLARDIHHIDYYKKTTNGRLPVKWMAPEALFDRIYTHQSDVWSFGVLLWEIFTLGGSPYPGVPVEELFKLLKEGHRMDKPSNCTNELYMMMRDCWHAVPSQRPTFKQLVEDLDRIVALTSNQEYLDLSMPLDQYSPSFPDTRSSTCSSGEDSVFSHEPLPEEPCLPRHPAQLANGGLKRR

FGFR3 = FGFR3 (UniProt P22607); assay: as above
Fer (mouse) = assay: as above
Fes = Fes (UniProt P07332); assay: as above
Fes, sequence (P07332 whole entry, looked up): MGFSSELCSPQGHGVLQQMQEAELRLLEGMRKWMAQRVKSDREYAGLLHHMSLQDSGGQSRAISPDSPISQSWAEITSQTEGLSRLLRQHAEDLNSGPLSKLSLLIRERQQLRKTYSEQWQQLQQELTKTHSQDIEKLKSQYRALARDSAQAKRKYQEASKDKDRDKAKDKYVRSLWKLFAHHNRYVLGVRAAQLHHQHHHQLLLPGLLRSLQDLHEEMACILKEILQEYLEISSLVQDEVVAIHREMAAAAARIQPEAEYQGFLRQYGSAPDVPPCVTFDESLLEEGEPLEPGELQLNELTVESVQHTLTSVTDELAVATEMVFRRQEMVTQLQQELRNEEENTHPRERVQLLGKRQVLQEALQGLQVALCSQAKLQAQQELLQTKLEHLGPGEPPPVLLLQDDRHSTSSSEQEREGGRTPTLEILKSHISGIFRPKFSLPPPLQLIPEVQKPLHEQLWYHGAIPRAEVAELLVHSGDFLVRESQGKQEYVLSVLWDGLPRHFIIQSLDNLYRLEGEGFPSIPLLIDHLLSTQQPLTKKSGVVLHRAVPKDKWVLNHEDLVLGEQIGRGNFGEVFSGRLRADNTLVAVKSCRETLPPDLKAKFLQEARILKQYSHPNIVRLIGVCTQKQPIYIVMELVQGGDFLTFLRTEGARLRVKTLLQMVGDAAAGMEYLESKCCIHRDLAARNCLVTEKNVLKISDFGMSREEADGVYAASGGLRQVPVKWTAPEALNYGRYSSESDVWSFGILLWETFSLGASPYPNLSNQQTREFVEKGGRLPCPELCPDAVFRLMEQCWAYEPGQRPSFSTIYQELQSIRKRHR

Fyn = Fyn (UniProt P06241); assay: as above
Hck = Hck (UniProt P08631); assay: as above
Jak2 = Jak2 (UniProt O60674); assay: as above
Jak2, sequence (O60674 whole entry, looked up): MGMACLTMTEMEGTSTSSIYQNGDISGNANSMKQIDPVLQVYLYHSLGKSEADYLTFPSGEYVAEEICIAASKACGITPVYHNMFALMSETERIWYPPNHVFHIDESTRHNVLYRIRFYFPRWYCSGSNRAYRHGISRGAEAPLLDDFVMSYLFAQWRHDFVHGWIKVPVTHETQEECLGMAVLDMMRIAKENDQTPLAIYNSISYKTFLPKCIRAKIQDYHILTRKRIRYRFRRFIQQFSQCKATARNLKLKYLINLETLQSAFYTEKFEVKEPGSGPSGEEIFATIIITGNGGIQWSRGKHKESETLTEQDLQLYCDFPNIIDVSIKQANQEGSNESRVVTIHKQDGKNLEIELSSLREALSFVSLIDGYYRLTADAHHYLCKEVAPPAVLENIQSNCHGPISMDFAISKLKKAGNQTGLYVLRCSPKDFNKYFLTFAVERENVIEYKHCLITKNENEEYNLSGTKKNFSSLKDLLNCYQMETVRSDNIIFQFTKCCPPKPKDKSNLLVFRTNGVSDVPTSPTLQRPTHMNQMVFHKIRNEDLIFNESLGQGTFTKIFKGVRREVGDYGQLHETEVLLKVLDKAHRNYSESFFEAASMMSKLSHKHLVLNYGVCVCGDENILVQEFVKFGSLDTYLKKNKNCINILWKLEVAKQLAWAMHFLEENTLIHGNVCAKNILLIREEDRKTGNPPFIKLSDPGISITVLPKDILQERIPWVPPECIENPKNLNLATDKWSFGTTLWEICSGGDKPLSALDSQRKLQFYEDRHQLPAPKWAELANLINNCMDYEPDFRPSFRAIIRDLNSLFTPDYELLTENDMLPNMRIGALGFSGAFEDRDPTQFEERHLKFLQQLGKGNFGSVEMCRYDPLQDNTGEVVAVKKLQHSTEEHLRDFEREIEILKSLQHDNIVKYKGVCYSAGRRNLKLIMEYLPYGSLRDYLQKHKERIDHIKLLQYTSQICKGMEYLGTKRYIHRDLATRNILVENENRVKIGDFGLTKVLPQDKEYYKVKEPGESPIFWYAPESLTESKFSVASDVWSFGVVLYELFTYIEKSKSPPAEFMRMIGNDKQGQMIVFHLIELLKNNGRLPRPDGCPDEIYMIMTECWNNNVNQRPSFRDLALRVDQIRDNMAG

MERTK = MERTK (UniProt Q12866); assay: as above
MERTK, sequence (Q12866 whole entry, looked up): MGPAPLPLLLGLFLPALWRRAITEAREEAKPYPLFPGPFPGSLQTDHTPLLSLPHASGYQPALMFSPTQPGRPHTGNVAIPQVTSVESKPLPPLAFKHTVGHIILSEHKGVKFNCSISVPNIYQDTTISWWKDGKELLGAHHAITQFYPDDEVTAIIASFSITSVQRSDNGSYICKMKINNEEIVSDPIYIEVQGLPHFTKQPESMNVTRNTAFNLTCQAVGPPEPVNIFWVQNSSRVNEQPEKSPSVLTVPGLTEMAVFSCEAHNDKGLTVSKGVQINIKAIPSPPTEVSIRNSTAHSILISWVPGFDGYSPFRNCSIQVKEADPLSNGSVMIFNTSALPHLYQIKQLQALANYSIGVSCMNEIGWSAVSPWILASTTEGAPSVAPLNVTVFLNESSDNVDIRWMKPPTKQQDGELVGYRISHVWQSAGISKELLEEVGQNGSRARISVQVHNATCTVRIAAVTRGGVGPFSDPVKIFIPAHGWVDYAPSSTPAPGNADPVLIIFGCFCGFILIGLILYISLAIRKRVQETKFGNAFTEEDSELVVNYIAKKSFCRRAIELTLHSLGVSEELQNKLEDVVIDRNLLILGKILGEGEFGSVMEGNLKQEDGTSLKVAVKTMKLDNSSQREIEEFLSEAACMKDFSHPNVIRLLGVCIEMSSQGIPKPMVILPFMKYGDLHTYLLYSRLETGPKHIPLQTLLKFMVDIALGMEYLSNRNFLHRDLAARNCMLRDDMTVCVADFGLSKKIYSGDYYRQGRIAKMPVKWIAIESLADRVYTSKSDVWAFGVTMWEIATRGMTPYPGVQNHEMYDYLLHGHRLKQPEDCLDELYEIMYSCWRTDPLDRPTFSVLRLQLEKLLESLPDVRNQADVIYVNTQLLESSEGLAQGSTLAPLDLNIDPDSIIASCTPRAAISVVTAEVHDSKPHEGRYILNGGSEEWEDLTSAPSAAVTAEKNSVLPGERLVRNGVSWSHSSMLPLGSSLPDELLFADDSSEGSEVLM

c-Abl (mouse) = assay: as above
c-Src = assay: as above
Grb2 SH2 = Grb2 SH2 (UniProt P62993); assay: SH2 binding enrichment of the phosphorylated peptide, bacterial display (enrichment ratio); higher = better substrate or ligand; peptides without Tyr show the background
Grb2 SH2, sequence (P62993 whole entry, looked up): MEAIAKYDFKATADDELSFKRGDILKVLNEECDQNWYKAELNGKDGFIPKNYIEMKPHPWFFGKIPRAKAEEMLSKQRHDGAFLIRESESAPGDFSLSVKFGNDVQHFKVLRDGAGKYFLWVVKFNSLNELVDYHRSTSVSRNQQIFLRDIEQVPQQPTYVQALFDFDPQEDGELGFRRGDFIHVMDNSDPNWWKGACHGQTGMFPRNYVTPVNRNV

SHP2-C SH2 = assay: as above
c-Src SH2 = assay: as above
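For SH2 binding enrichment of the phosphorylated peptide, bacterial display in this document: peptide library displayed on the E. coli surface as eCPX fusions, selected cells deep-sequenced, score is each peptide's frequency after selection divided by its frequency in the input.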
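For phosphorylation enrichment, bacterial display in this document: 11-residue human phosphosite peptides and single-mutation variants displayed on the E. coli surface, counted by deep sequencing, each peptide's frequency after selection divided by its frequency in the unselected input library; frequency after pTyr selection over input frequency; kinase dosed for 20-30% of maximal phosphorylation in three min.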

EPHB1, sequence (P54762 whole entry, looked up): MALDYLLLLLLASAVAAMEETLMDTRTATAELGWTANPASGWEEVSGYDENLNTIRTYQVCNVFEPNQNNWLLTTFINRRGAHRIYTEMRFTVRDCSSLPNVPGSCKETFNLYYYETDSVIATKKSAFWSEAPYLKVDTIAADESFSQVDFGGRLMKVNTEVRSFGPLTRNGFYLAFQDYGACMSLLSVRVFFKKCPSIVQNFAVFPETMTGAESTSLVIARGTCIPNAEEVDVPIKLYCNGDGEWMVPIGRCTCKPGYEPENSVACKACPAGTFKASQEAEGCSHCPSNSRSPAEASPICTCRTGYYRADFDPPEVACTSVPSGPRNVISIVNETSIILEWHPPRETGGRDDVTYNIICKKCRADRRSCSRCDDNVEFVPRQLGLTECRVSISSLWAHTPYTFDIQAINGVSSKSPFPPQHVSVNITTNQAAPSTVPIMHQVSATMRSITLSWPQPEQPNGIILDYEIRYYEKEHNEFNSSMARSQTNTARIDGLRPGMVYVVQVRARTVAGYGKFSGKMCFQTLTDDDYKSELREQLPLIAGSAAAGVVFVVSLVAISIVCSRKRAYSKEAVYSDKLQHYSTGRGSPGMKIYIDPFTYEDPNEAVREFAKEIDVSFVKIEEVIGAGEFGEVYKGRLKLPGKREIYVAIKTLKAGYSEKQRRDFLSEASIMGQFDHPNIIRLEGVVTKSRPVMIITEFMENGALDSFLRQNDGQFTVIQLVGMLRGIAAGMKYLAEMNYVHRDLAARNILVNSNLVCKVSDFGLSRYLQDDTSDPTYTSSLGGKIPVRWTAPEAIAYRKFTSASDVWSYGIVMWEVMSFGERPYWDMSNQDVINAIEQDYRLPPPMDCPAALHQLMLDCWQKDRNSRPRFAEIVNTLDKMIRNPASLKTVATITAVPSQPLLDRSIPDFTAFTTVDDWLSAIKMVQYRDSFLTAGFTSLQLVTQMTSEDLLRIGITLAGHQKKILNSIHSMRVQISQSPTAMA

Row | Sequence | phosphorylation enrichment (AncSZ) | phosphorylation enrichment (EPHB1) | phosphorylation enrichment (EPHB2) | phosphorylation enrichment (FGFR1) | phosphorylation enrichment (FGFR3) | phosphorylation enrichment (Fer (mouse)) | phosphorylation enrichment (Fes) | phosphorylation enrichment (Fyn) | phosphorylation enrichment (Hck) | phosphorylation enrichment (Jak2) | phosphorylation enrichment (MERTK) | phosphorylation enrichment (c-Abl (mouse)) | phosphorylation enrichment (c-Src) | SH2 binding enrichment (Grb2 SH2) | SH2 binding enrichment (SHP2-C SH2) | SH2 binding enrichment (c-Src SH2)
1 | PYRFIYMAVQH [PTPN11_Y515_Q510P] | 1.92 | 3.56 | 2.45 | 1.87 | 1.76 | 2.9 | 2.08 | 5.01 | 5.48 | 1.08 | 2.14 | 1.67 | 3.36 | 1.07 | 1.12 | 0.759
2 | SVTCTYSPVLN [TP53_Y126_A129V] | 1.37 | 0.795 | 0.692 | 0.558 | 0.831 | 1.02 | 1.6 | 0.613 | 0.876 | 1.21 | 0.435 | 0.804 | 0.815 | 0.78 | 0.683 | 0.538
3 | LDVDVYGPSVP [NUBPL_Y109] | 1.06 | 0.622 | 0.536 | 0.483 | 0.72 | 1.2 | 1.28 | 1.47 | 1.77 | 0.829 | 0.498 | 1.4 | 1.33 | 0.868 | 0.551 | 0.498
4 | LPEENYQVLCF [ARHGAP1_Y365_R369C] | 3.61 | 9.13 | 5.96 | 8.04 | 5.59 | 7.5 | 3.56 | 1.64 | 4.43 | 5.17 | 3.58 | 3.14 | 5.73 | 0.739 | 0.49 | 0.82
5 | FIRRDYEACKA [BBS4_Y48_K46R_YF] | 0.761 | 0.514 | 0.59 | 0.45 | 0.494 | 0.434 | 0.758 | 0.525 | 0.442 | 0.573 | 0.4 | 0.549 | 0.616 | 0.918 | 1.01 | 0.682
6 | IHETTYKSIMK [ACTA1_Y281_N282K] | 0.364 | 0.324 | 0.33 | 0.373 | 0.472 | 0.372 | 0.583 | 0.309 | 0.359 | 0.692 | 0.331 | 0.458 | 0.384 | 0.804 | 3.31 | 0.55
7 | YIATQYSLRPR [LBR_Y166] | 0.932 | 0.511 | 0.493 | 0.551 | 0.527 | 0.439 | 0.773 | 0.558 | 0.568 | 0.779 | 0.731 | 0.72 | 0.659 | 0.762 | 0.685 | 0.392
8 | LRSELYSLIAR [PHIP_Y16_F17S] | 0.919 | 5.23 | 1.36 | 0.693 | 0.811 | 4.78 | 1.11 | 1.63 | 7.53 | 0.54 | 11 | 0.566 | 2.26 | 1.15 | 1.05 | 1.89
9 | SLNEGYAKDFD [FBP1_Y216_R218K] | 1.02 | 0.508 | 0.6 | 0.566 | 0.716 | 0.511 | 0.937 | 0.534 | 0.525 | 0.71 | 0.437 | 0.589 | 0.371 | 0.788 | 0.84 | 0.598
10 | VTQEPYELYCE [CBL_Y368_Q367P] | 1.65 | 0.763 | 0.621 | 0.554 | 0.794 | 0.86 | 1.13 | 0.761 | 0.717 | 0.999 | 0.461 | 0.74 | 1.24 | 1.01 | 0.861 | 0.695
11 | RSRSSYTHGLN [MYCT1_Y116] | 1.42 | 1 | 0.882 | 0.588 | 0.88 | 0.705 | 1.35 | 0.956 | 0.935 | 0.916 | 0.883 | 0.981 | 1.23 | 0.779 | 0.917 | 0.593
12 | AVRFIYTIDGS [DCX_Y105_G100A_YF] | 1.32 | 0.574 | 0.552 | 0.453 | 0.697 | 0.529 | 1.28 | 1.56 | 0.67 | 1.27 | 0.424 | 0.706 | 1.55 | 0.928 | 0.988 | 0.723
13 | FSEVRYVKEPY [HIPK4_Y170] | 0.9 | 0.474 | 0.449 | 0.668 | 0.538 | 0.404 | 1.06 | 0.372 | 0.388 | 1.06 | 0.371 | 0.783 | 0.392 | 0.908 | 0.52 | 0.624
14 | NYADPYRQLPY [CTNND2_Y503_Q507P] | 0.78 | 10.1 | 10.7 | 4.13 | 2.33 | 0.469 | 0.819 | 0.501 | 0.847 | 0.669 | 6.98 | 0.847 | 0.827 | 0.775 | 0.749 | 1.25
15 | PYSEPYADYGG [APBA1_Y187] | 2.11 | 1.04 | 1.18 | 3.21 | 2.23 | 1.34 | 1.72 | 1.89 | 1.41 | 1.56 | 0.911 | 1.03 | 4.44 | 0.675 | 0.651 | 6.47
16 | SVMAEYGLFAA [VSX2_Y219_G223A_YF] | 0.822 | 0.484 | 0.578 | 0.505 | 0.564 | 0.664 | 0.845 | 5.82 | 2.76 | 0.734 | 0.396 | 0.675 | 4.95 | 0.881 | 0.627 | 0.462
17 | DQNVEYKGTVS [FHL1_Y117_W122S] | 0.801 | 0.508 | 0.616 | 0.525 | 0.566 | 0.468 | 0.828 | 0.422 | 0.495 | 0.618 | 0.452 | 0.624 | 0.444 | 0.867 | 0.704 | 0.53
18 | TGFRPYVCPFD [YY1_Y383_D380Y_YF] | 1.54 | 2.1 | 0.978 | 1.1 | 1.66 | 0.892 | 0.975 | 0.4 | 0.691 | 1.12 | 0.849 | 1.29 | 0.458 | 0.677 | 0.82 | 0.56
19 | YHIDHYLGKEM [G6PD_Y202_R198H] | 0.599 | 0.437 | 0.505 | 0.673 | 0.667 | 0.478 | 0.674 | 0.482 | 0.474 | 0.476 | 0.438 | 0.58 | 0.546 | 1.09 | 0.664 | 0.573
20 | DEEPPHRGPFC [SASH1_Y551_Y551H] | 1.01 | 0.619 | 0.783 | 0.645 | 0.651 | 0.528 | 1.06 | 0.489 | 0.542 | 0.795 | 0.41 | 0.609 | 0.475 | 1.03 | 0.895 | 0.744
21 | RGFRVYFTPDS [PTPRF_Y450_YF] | 1.31 | 0.583 | 0.749 | 0.545 | 0.877 | 0.469 | 1.71 | 0.4 | 0.542 | 1.76 | 0.538 | 1.2 | 0.714 | 1.16 | 0.908 | 1.2
22 | DNEALYDICFR [TUBB2B_Y208] | 3.21 | 4.63 | 4.88 | 0.618 | 0.917 | 10.2 | 1.6 | 6.65 | 6.43 | 1.38 | 7.51 | 3.58 | 5.86 | 0.77 | 0.627 | 0.469
23 | RHNEIYEIKVD [LGR5_Y387] | 1.12 | 0.312 | 0.671 | 0.724 | 1.02 | 0.915 | 1.18 | 8.54 | 6.57 | 1.86 | 0.616 | 0.768 | 8.99 | 1.09 | 0.629 | 0.479
24 | DRLASSLDKVR [KRT10_Y160_Y160S] | 0.438 | 0.34 | 0.364 | 0.35 | 0.415 | 0.412 | 0.663 | 0.423 | 0.308 | 0.473 | 0.331 | 0.468 | 0.333 | 0.974 | 0.846 | 0.422
25 | FEPWVYSFSYE [PRKDC_Y647] | 1.43 | 0.759 | 0.654 | 0.655 | 1.03 | 1.35 | 1.36 | 6.53 | 2.94 | 1.3 | 1.22 | 0.861 | 5.83 | 0.767 | 0.592 | 0.705
26 | PVDVAYRRGFF [PLEC_Y2967_YF] | 0.909 | 0.456 | 0.44 | 0.504 | 0.535 | 0.584 | 0.833 | 0.424 | 0.595 | 0.728 | 0.586 | 0.574 | 0.475 | 0.696 | 0.599 | 0.56
27 | QLRPGYIPIPV [BAG3_Y93] | 0.953 | 0.774 | 0.592 | 0.735 | 1.09 | 0.645 | 0.915 | 0.736 | 0.639 | 1.08 | 0.772 | 0.796 | 0.734 | 0.848 | 0.585 | 0.493
28 | MSLRSYGSWEG [APC_Y96_R99W] | 1.32 | 0.581 | 0.338 | 0.034 | 0.671 |  | 0.881 | 0.633 | 0.459 | 0.793 | 0.047 | 0.273 | 0.705 | 0.45 | 0.412 | 0.282
29 | RETLTYAQAQG [BRD1_Y33_R38G] | 0.579 |  | 0.934 | 0.916 | 0.149 | 0.383 | 0.448 | 0.551 | 0.982 |  | 0.391 | 0.418 | 0.768 |  |  | 
